Data: patent US6403769 (US Dept. of Health and Human Services, dated 2002)

Assays:
[1] = molecular target: T1, D2-HFc fusion protein (mouse, UniProt P21803 22-156; P01868 98-324 = IgG part, limits assumed); experiment: 50% displacement of 125I-aFGF by unlabeled aFGF, fusion protein captured on Gamma Bind G (Scatchard analysis)
T1 construct: domain: Ig-like effector domain D2;domain: hinge, CH2 and CH3 domains; Disulfide-linked dimer (55 kd reduced, 110 kd nonreduced); also called KGFR-HFc (D2)
Protocol: (§1) Ey et al., Immunochem. 15: 429 (1978). […] Bovine brain aFGF was obtained from Upstate Biotechnology, Inc. (Lake Placid, N.Y.). ^125I-aFGF was prepared as described by Friesel et al., J. Biol. Chem. 261: 7581 (1986).
(§2) Bound ligand recovered from the pellets was counted in a Beckman gamma counter. Specific binding was defined as the difference between binding in the absence or presence of excess unlabeled ligand.

[2] = molecular target: T2, D2/3-HFc fusion protein (mouse, UniProt P21803 22-262; P01868 98-324 = IgG part, limits assumed); experiment: as above
T2 construct: domain: Ig-like effector domains D2 and D3;domain: hinge, CH2 and CH3 domains; Secreted by NIH 3T3 transfectants as a disulfide-linked dimer (80 kd reduced, 160 kd nonreduced); Cloned into HFc-pUC 18 without the heterologous signal peptide; also called KGFR-HFc (D2/3)
Protocol: as §1, §2

[3] = molecular target: T3, β PDGFR (UniProt P09619 33-1106, limits assumed); experiment: Scatchard analysis
T3 construct: also called β PDGF receptor

[4] = molecular target: T4, α PDGFR (UniProt P16234 24-1089, limits assumed); experiment: Scatchard analysis
T4 construct: also called α PDGF receptor

[5] = molecular target: T5, immunoglobulin HFc (mouse, UniProt P01868 98-324 = IgG part); experiment: ELISA-like assay, 10 ng PDGF BB immobilized
T5 construct: domain: hinge, CH2 and CH3 domains; Control without a nonantibody portion; also called the HFc portion of IgG; control immunoglobulin HFc
Protocol: After a two hour incubation, wells were washed, and alkaline phosphatase substrate was added to the wells in 100 mM sodium bicarbonate (pH 9.8)-1 mM magnesium chloride. After another incubation, the presence of the product of the chromogenic substrate was measured at 405 nm using an ELISA reader.

[6] = molecular target: T2, D2/3-HFc fusion protein; experiment: 50% displacement of 125I-KGF by unlabeled KGF, fusion protein captured on Gamma Bind G (Scatchard analysis)
Protocol: as §1, §2
The dissociation constant for each fusion protein was determined by measuring the concentrations of unlabeled ligand required for 50% displacement of radiolabeled ligand.

[7] = molecular target: T5, immunoglobulin HFc; experiment: immunohistochemistry on normal human skin
[8] = molecular target: S. aureus protein A Sepharose CL-4B (S. aureus, UniProt P38507 37-477); experiment: precipitation of 35S-labeled conditioned medium
Protocol: Cells were incubated in the presence of radiolabeled amino acids to examine the expression of the fusion proteins. […] The immunoprecipitated proteins were then analyzed by SDS-polyacrylamide gel electrophoresis (PAGE) and immunoprecipitated species were visualized after fluorography.
Isolated proteins were analyzed using SDS-PAGE.

T3 sequence (P09619 33-1106 limits assumed): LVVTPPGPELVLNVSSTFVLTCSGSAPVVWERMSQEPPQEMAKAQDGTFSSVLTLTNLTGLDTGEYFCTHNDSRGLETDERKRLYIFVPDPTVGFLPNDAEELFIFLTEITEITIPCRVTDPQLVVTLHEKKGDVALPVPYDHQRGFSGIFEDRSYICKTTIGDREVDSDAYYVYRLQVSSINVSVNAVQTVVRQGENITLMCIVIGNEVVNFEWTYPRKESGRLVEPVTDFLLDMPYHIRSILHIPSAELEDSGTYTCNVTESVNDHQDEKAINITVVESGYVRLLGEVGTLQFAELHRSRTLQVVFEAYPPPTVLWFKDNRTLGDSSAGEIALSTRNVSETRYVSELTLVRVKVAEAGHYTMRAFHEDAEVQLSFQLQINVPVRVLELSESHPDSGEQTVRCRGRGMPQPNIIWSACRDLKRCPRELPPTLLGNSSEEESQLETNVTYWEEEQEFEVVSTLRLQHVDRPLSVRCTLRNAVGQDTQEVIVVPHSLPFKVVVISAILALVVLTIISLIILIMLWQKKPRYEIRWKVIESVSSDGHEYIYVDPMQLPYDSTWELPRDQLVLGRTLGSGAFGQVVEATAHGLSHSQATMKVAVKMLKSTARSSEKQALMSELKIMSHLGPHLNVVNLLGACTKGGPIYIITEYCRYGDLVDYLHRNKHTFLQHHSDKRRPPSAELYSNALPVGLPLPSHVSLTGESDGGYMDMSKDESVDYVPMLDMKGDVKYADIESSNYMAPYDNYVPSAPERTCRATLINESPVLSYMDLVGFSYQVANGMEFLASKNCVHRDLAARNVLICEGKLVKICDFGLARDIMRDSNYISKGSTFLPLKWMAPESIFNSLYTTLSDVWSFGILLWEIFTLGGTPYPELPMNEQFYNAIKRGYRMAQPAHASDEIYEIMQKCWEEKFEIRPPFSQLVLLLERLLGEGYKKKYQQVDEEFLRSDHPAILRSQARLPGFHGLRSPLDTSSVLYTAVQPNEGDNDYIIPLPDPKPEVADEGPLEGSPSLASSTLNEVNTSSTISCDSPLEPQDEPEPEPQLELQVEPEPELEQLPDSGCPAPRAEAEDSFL
T4 sequence (P16234 24-1089 limits assumed): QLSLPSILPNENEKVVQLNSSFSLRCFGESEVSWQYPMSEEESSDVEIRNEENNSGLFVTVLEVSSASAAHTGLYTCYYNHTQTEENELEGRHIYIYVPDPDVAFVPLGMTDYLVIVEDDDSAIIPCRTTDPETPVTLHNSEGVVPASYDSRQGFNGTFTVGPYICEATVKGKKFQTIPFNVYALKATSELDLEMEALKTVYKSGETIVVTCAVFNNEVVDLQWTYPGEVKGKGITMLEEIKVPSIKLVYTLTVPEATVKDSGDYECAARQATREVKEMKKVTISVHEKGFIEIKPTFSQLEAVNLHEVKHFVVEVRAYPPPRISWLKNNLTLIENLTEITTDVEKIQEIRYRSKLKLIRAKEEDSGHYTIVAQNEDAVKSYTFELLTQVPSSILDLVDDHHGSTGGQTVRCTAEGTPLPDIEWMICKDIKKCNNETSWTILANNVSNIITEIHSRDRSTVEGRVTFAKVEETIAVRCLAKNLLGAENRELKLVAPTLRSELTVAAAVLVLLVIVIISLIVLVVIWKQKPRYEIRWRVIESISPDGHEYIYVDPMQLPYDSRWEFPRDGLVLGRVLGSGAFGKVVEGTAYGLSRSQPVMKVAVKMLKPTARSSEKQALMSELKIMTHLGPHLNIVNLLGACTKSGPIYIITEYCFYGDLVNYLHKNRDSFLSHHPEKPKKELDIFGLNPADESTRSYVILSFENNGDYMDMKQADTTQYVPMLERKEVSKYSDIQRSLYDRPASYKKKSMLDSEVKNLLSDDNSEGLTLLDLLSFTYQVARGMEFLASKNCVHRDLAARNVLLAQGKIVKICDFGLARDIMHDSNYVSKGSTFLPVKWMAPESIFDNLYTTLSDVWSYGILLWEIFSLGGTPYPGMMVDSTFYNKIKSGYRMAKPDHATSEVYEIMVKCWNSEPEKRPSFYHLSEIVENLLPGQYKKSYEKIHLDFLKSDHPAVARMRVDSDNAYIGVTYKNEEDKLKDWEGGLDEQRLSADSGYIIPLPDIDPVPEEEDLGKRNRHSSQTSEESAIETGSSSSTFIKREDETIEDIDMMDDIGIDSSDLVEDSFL

B1: bovine brain aFGF (ligand, UniProt P03968 16-155, looked up)
chain: FNLPLGNYKKPKLLYCSNGGYFLRILPDGTVDGTKDRSDQHIQLQLCAESIGEVYIKSTETGQFLAMDTDGLLYGSQTPNEECLFLERLEENHYNTYISKKHAEKHWFVGLKKNGRSKLGPRTHFGQKAILFLPLPVSSD
notes: also called radioiodinated bovine fibroblast growth factor (aFGF); 125I-aFGF
Question: Which Kd [1] does the source give for B1 here?
Answer: 0.96 nM

Question: What about the Kd [2] of the same binder?
Answer: 0.52 nM

B2: PDGF B-HFc fusion protein (Fc fusion, UniProt P01127 82-190, looked up)
chain: SLGSLTIAEPAMIAECKTRTEVFEISRRLIDRTNANFLVWPPCVEVQRCSGCCNNRNVQCRPTQVQLRPVQVRKIEIVRKKPIFKKATVTLEDHLACKCETVAAARPVTVPRDCGCKPCICTVPEVSSVFIFPPKPKDVLTITLTPKVTCVVVDISKDDPEVQFSWFVDDVEVHTAQTQPREEQFNSTFRSVSELPIMHQDWLNGKEFKCRVNSAAFPAPIEKTISKTKGRPKAPQVYTIPPPKEQMAKDKVSLTCMITDFFPEDITVEWQWNGQPAENYKNTQPIMNTNGSYFVYSKLNVQKSNWEAGNTFTCSVLHEGLHNHHTEKSLSHSPGK
notes: Expressed as an 84 kd dimeric protein
Question: Which results are given for B2?
Answer: Kd [3]: 1.4 nM; Kd [4]: 3.2 nM

B3: PDGF BB (ligand, UniProt P01127 82-190, looked up)
chain: SLGSLTIAEPAMIAECKTRTEVFEISRRLIDRTNANFLVWPPCVEVQRCSGCCNNRNVQCRPTQVQLRPVQVRKIEIVRKKPIFKKATVTLEDHLACKCETVAAARPVT
notes: also called PDGF BB protein
Question: Does B3 bind [5]?
Answer: no binding

B4: keratinocyte growth factor (KGF) (ligand, human, UniProt P21781 32-194, looked up)
chain: CNDMTPEQMATNVNCSSPERHTRSYDYMEGGDIRVRRLFCRTQWYLRIDKRGKVKGTQEMKNNYNIMEIRTVAVGIVAIKGVESEFYLAMNKEGKLYAKKECNEDCNFKELILENHYNTYASAKWTHNGGEMFVALNQKGIPVRGKKTKKEQKTAHFLPMAIT
notes: also called recombinant human KGF; recombinant KGF
Question: B4 was tested. Which Kd [6] did it give?
Answer: 0.12 nM

Question: Does B4 bind [7]?
Answer: no binding

B5: PDGF A-HFc fusion protein (Fc fusion)
chain: not shown
notes: Expressed as an 84-89 kd dimeric protein
Question: Does B5 bind [3]?
Answer: no binding

Question: What about the Kd [4] of the same binder?
Answer: 1.3 nM

B6: KGF-HFc fusion protein (Fc fusion, UniProt P21781 32-194, looked up)
chain: CNDMTPEQMATNVNCSSPERHTRSYDYMEGGDIRVRRLFCRTQWYLRIDKRGKVKGTQEMKNNYNIMEIRTVAVGIVAIKGVESEFYLAMNKEGKLYAKKECNEDCNFKELILENHYNTYASAKWTHNGGEMFVALNQKGIPVRGKKTKKEQKTAHFLPMAITVPRDCGCKPCICTVPEVSSVFIFPPKPKDVLTITLTPKVTCVVVDISKDDPEVQFSWFVDDVEVHTAQTQPREEQFNSTFRSVSELPIMHQDWLNGKEFKCRVNSAAFPAPIEKTISKTKGRPKAPQVYTIPPPKEQMAKDKVSLTCMITDFFPEDITVEWQWNGQPAENYKNTQPIMNTNGSYFVYSKLNVQKSNWEAGNTFTCSVLHEGLHNHHTEKSLSHSPGK
notes: Disulfide-linked dimer, p94-98 nonreduced, 48 kd reduced
Question: Does B6 bind [8]?
Answer: binds
